In patent publication US20240132578A1:

Assays:
Experiment in all cases: cell-based or functional assay
[1] = molecular target: HIV-1 envelope glycoprotein (Env) of isolate MGRM-C-022 (HIV-1)
[2] = molecular target: HIV-1 Env of pseudovirus MGRM-F1-012 (clade F) (HIV-1)
[3] = molecular target: HIV-1 92RW020 envelope (Env) on pseudovirus (HIV-1)
[4] = molecular target: HIV-1 92UG024 envelope (Env) on pseudovirus (HIV-1)
[5] = molecular target: HIV-1 Env of isolate MGRM-Chronic-B-003, clade B (HIV-1)
[6] = molecular target: HIV-1 Env of isolate MGRM-D-029 (clade D pseudovirus) (HIV-1)
[7] = molecular target: HIV-1 Env of isolate MGRM-A-010 (clade A pseudovirus) (HIV-1)
[8] = molecular target: HIV-1 Env of isolate 94UG103 (Clade A) (HIV-1)
[9] = molecular target: HIV-1 Env of pseudovirus MGRM-F1-010 (clade F) (HIV-1)
[10] = molecular target: HIV-1 Env of isolate APV_6, clade B (HIV-1)
[11] = molecular target: HIV-1 Env of isolate MGRM-D-026 (clade D pseudovirus) (HIV-1)
[12] = molecular target: HIV-1 Env of pseudovirus MGRM-F1-008 (clade F) (HIV-1)
[13] = molecular target: HIV-1 envelope glycoprotein (Env) of isolate MGRM-C-008 (HIV-1)

Row | Substance | IC50 (µg/ml), pseudovirus neutralization [1] [µg/mL] | IC50 [2] [µg/mL] | neutralization IC50 [3] [µg/mL] | neutralization IC50 [4] [µg/mL] | IC50 (µg/ml), pseudovirus neutralization [5] [µg/mL] | IC50, pseudovirus neutralization [6] [µg/mL] | IC50 (µg/ml), pseudovirus neutralization [7] [µg/mL] | IC90 (neutralization of pseudovirus) [8] [µg/mL] | IC50 [9] [µg/mL] | IC50 (µg/ml), pseudovirus neutralization [10] [µg/mL] | IC50, pseudovirus neutralization [11] [µg/mL] | IC50 [12] [µg/mL] | IC50 (µg/ml), pseudovirus neutralization [13] [µg/mL]
1 | b12 (antibody) | > 50 | > 50 | > 50 | 49.1 | > 50 | > 50 | > 50 | 47.3 | > 50 | > 50 | 1.55 | > 50 | 1.51
2 | 4E10 (antibody) | 5.71 | 0.37 | 3.38 | 1.32 | 3.5 | 5.3 | 14.4 | > 50 | 3.69 | 1.1 | 2.95 | 2.75 | 2.97
